B4: FANCA (natural protein)
chain: MSDSWVPNSASGQDPGGRRRAWAELLAGRVKREKYNPERAQKLKESAVRLLRSHQDLNALLLEVEGPLCKKLSLSKVIDCDSSEAYANHSSSFIGSALQDQASRLGVPVGILSAGMVASSVGQICTAPAETSHPVLLTVEQRKKLSSLLEFAQYLLAHSMFSRLSFCQELWKIQSSLLLEAVWHLHVQGIVSLQELLESHPDMHAVGSWLFRNLCCLCEQMEASCQHADVARAMLSDFVQMFVLRGFQKNSDLRRTVEPEKMPQVTVDVLQRMLIFALDALAAGVQEESSTHKIVRCWFGVFSGHTLGSVISTDPLKRFFSHTLTQILTHSPVLKASDAVQMQREWSFARTHPLLTSLYRRLFVMLSAEELVGHLQEVLETQEVHWQRVLSFVSALVVCFPEAQQLLEDWVARLMAQAFESCQLDSMVTAFLVVRQAALEGPSAFLSYADWFKASFGSTRGYHGCSKKALVFLFTFLSELVPFESPRYLQVHILHPPLVPGKYRSLLTDYISLAKTRLADLKVSIENMGLYEDLSSAGDITEPHSQALQDVEKAIMVFEHTGNIPVTVMEASIFRRPYYVSHFLPALLTPRVLPKVPDSRVAFIESLKRADKIPPSLYSTYCQACSAAEEKPEDAALGVRAEPNSAEEPLGQLTAALGELRASMTDPSQRDVISAQVAVISERLRAVLGHNEDDSSVEISKIQLSINTPRLEPREHMAVDLLLTSFCQNLMAASSVAPPERQGPWAALFVRTMCGRVLPAVLTRLCQLLRHQGPSLSAPHVLGLAALAVHLGESRSALPEVDVGPPAPGAGLPVPALFDSLLTCRTRDSLFFCLKFCTAAISYSLCKFSSQSRDTLCSCLSPGLIKKFQFLMFRLFSEARQPLSEEDVASLSWRPLHLPSADWQRAALSLWTHRTFREVLKEEDVHLTYQDWLHLELEIQPEADALSDTERQDFHQWAIHEHFLPESSASGGCDGDLQAACTILVNALMDFHQSSRSYDHSENSDLVFGGRTGNEDIISRLQEMVADLELQQDLIVPLGHTPSQEHFLFEIFRRRLQALTSGWSVAASLQRQRELLMYKRILLRLPSSVLCGSSFQAEQPITARCEQFFHLVNSEMRNFCSHGGALTQDITAHFFRGLLNACLRSRDPSLMVDFILAKCQTKCPLILTSALVWWPSLEPVLLCRWRRHCQSPLPRELQKLQEGRQFASDFLSPEAASPAPNPDWLSAAALHFAIQQVREENIRKQLKKLDCEREELLVFLFFFSLMGLLSSHLTSNSTTDLPKAFHVCAAILECLEKRKISWLALFQLTESDLRLGRLLLRVAPDQHTRLLPFAFYSLLSYFHEDAAIREEAFLHVAVDMYLKLVQLFVAGDTSTVSPPAGRSLELKGQGNPVELITKARLFLLQLIPRCPKKSFSHVAELLADRGDCDPEVSAALQSRQQAAPDADLSQEPHLF

Common to all, as to assay: cryo-EM structure
The data set “FANCA” has as its target B4.
The data set “cryo-EM structure” concerns the molecule itself.
In the next data set the target is T1, FANCC (human, UniProt Q00597 1-558).
T1 sequence: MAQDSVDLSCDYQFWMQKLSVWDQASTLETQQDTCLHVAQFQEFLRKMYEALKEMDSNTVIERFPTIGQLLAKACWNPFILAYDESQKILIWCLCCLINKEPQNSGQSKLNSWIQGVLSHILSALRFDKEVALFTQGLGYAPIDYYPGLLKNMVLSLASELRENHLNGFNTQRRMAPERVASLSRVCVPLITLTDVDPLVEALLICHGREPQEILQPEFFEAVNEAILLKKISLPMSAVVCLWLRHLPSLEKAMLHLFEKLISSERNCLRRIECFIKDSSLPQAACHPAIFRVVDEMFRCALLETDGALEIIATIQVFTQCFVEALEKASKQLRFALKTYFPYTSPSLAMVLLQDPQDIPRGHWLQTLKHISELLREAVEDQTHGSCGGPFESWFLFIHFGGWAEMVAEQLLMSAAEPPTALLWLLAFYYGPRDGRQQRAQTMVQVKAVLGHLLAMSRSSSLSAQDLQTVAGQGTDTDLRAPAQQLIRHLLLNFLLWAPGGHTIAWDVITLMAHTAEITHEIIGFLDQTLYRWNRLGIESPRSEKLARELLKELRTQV

Consider four molecules from publication doi:10.1101/854158 (bioRxiv, 2019).

B1: FANCB (natural protein)
chain: MTSKQAMSSNEQERLLCYNGEVLVFQLSKGNFADKEPTKTPILHVRRMVFDRGTKVFVQKSTGFFTIKEENSHLKIMCCNCVSDFRTGINLPYIVIEKNKKNNVFEYFLLILHSTNKFEMRLSFKLGYEMKDGLRVLNGPLILWRHVKAFFFISSQTGKVVSVSGNFSSIQWAGEIENLGMVLLGLKECCLSEEECTQEPSKSDYAIWNTKFCVYSLESQEVLSDIYIIPPAYSSVVTYVHICATEIIKNQLRISLIALTRKNQLISFQNGTPKNVCQLPFGDPCAVQLMDSGGGNLFFVVSFISNNACAVWKESFQVAAKWEKLSLVLIDDFIGSGTEQVLLLFKDSLNSDCLTSFKITDLGKINYSSEPSDCNEDDLFEDKQENRYLVVPPLETGLKVCFSSFRELRQHLLLKEKIISKSYKALINLVQGKDDNTSSAEEKECLVPLCGEEENSVHILDEKLSDNFQDSEQLVEKIWYRVIDDSLVVGVKTTSSLKLSLNDVTLSLLMDQAHDSRFRLLKCQNRVIKLSTNPFPAPYLMPCEIGLEAKRVTLTPDSKKEESFVCEHPSKKECVQIITAVTSLSPLLTFSKFCCTVLLQIMERESGNCPKDRYVVCGRVFLSLEDLSTGKYLLTFPKKKPIEHMEDLFALLAAFHKSCFQITSPGYALNSMKVWLLEHMKCEIIKEFPEVYFCERPGSFYGTLFTWKQRTPFEGILIIYSRNQTVMFQCLHNLIRILPINCFLKNLKSGSENFLIDNMAFTLEKELVTLSSLSSAIAKHESNFMQRCEVSKGKSSVVAAALSDRRENIHPYRKELQREKKKMLQTNLKVSGALYREITLKVAEVQLKSDFAAQKLSNL
Take B1: the binding result with FANCA and in “cryo-EM structure” was “binds” throughout.

B2: FAAP100 (natural protein)
chain: MAGAAPRVRYLAGFCCPLGGLAAGKPRVLCHEAEVFLSTGSELVYVYDQEGGLLTAAFRFPDQVWHLELLAPRRLLYALCARRGLYCLSLDHPGRSRSTSQDDRDSEDGDQPSPVIPVDPDACILPDAALCAFTLLDSVLVTLVQGPARWKMQLFEQPCPGEDPRPGGQIGEVELSSYTPPAGVPGKPAAPHFLPVLCSVSPSGSRVPHDLLGGSGGFTLEDALFGLLFGADATLLQSPVVLCGLPDGQLCCVILKALVTSRSAPGDPNALVKILHHLEEPVIFIGALKTEPQAAEAAENFLPDEDVHCDCLVAFGHHGRMLAIKASWDESGKLVPELREYCLPGPVLCAACGGGGRVYHSTPSDLCVVDLSRGSTPLGPEQPEEGPGGLPPMLCPASLNICSVVSLSASPRTHEGGTKLLALSAKGRLMTCSLDLDSEMPGPARMTTESAGQKIKELLSGIGNISERVSFLKKAVDQRNKALTSLNEAMNVSCALLSSGTGPRPISCTTSTTWSRLQTQDVLMATCVLENSSSFSLDQGWTLCIQVLTSSCALDLDSACSAITYTIPVDQLGPGARREVTLPLGPGENGGLDLPVTVSCTLFYSLREVVGGALAPSDSEDPFLDECPSDVLPEQEGVCLPLSRHTVDMLQCLRFPGLAPPHTRAPSPLGPTRDPVATFLETCREPGSQPAGPASLRAEYLPPSVASIKVSAELLRAALKDGHSGVPLCCATLQWLLAENAAVDVVRARALSSIQGVAPDGANVHLIVREVAMTDLCPAGPIQAVEIQVESSSLADICRAHHAVVGRMQTMVTEQATQGSSAPDLRVQYLRQIHANHETLLREVQTLRDRLCTEDEASSCATAQRLLQVYRQLRHPSLILL
As to B2, in the data set with FANCA, the binding result is “binds”.

B3: FANCE (natural protein)
chain: MATPDAGLPGAEGVEPAPWAQLEAPARLLLQALQAGPEGARRGLGVLRALGSRGWEPFDWGRLLEALCREEPVVQGPDGRLELKPLLLRLPRICQRNLMSLLMAVRPSLPESGLLSVLQIAQQDLAPDPDAWLRALGELLRRDLGVGTSMEGASPLSERCQRQLQSLCRGLGLGGRRLKSPQAPDPEEEENRDSQQPGKRRKDSEEEAASPEGKRVPKRLRCWEEEEDHEKERPEHKSLESLADGGSASPIKDQPVMAVKTGEDGSNLDDAKGLAESLELPKAIQDQLPRLQQLLKTLEEGLEGLEDAPPVELQLLHECSPSQMDLLCAQLQLPQLSDLGLLRLCTWLLALSPDLSLSNATVLTRSLFLGRILSLTSSASRLLTTALTSFCAKYTYPVCSALLDPVLQAPGTGPAQTELLCCLVKMESLEPDAQVLMLGQILELPWKEETFLVLQSLLERQVEMTPEKFSVLMEKLCKKGLAATTSMAYAKLMLTVMTKYQANITETQRLGLAMALEPNTTFLRKSLKAALKHLGP
Turning to B3, the binding result with FANCC is listed as “binds”.

Consider B4, for which the “stoichiometry N” value in “cryo-EM structure” is 2.

Broadly, the stoichiometry N is the number of molecules, sites or subunits per partner or assembly.
